Experimental data taken from paper PMC1326212, “Dimerization and enzymatic activity of fungal 17β-hydroxysteroid dehydrogenase from the short-chain dehydrogenase/reductase superfamily” (BMC Biochemistry, 2005).

Assays:
[1] = target: 17β-HSD type 1 (Homo sapiens) (UniProt P14061); conditions: cited from earlier work
[2] = tested on: NC(=O)C1=CN([C@@H]2O[C@H](COP(=O)(O)OP(=O)(O)OC[C@H]3O[C@@H](n4cnc5c(N)ncnc54)[C@H](OP(=O)(O)O)[C@@H]3O)[C@@H](O)[C@H]2O)C=CC1; test: purified protein; assay type: biochemical, Curvularia lunata; conditions: reduction of 4-estrene-3,17-dione (100 μM), 100 mM phosphate pH 8.0, 25°C, 1% DMF, varied: cofactor
[3] = tested on: NC(=O)c1ccc[n+]([C@@H]2O[C@H](COP(=O)(O)OP(=O)(O)OC[C@H]3O[C@@H](n4cnc5c(N)ncnc54)[C@H](OP(=O)(O)O)[C@@H]3O)[C@@H](O)[C@H]2O)c1; test: purified protein; assay type: biochemical, Curvularia lunata; conditions: oxidation of 4-estrene-17β-ol-3-one (100 μM), 100 mM phosphate pH 8.0, 25°C, 1% DMF, varied: cofactor
[4] = target: 17β-HSDcl-His111Ala (Cochliobolus lunatus); test: SEC; gel filtration on TSK G4000 SWxl, 100 mM phosphate buffer with 150 mM NaCl, pH 7.0; about 40 μg protein in 100 μl injected, 1.0 ml/min; mass by calibration standards
17β-HSDcl [5] = target: T1, 17β-HSDcl (Curvularia lunata, UniProt O93874, H111A); test: intrinsic fluorescence quenching titration; assay type: binding
T1 construct: gene 17HSDcl; GST fusion (pGex-17β-HSDcl) from E. coli JM107, GST cut off with thrombin; 28 kDa subunit; wild type and H111A homodimeric, H111L and R129D monomeric
Source text: (§1) intrinsic fluorescence quenching titration on 17β-HSDcl

17β-HSDcl [6] = target: T2, 17β-HSDcl (Curvularia lunata, UniProt O93874, R129D); test: intrinsic fluorescence quenching titration; assay type: binding
T2 construct: gene 17HSDcl; GST fusion (pGex-17β-HSDcl) from E. coli JM107, GST cut off with thrombin; 28 kDa subunit; wild type and H111A homodimeric, H111L and R129D monomeric
Source text: as §1

17β-HSDcl [7] = target: T3, 17β-HSDcl (Curvularia lunata, UniProt O93874, H111L); test: intrinsic fluorescence quenching titration; assay type: binding
T3 construct: gene 17HSDcl; GST fusion (pGex-17β-HSDcl) from E. coli JM107, GST cut off with thrombin; 28 kDa subunit; wild type and H111A homodimeric, H111L and R129D monomeric
Source text: as §1

[8] = target: the molecule itself; test: SEC; gel filtration on TSK G4000 SWxl, 100 mM phosphate buffer with 150 mM NaCl, pH 7.0; about 40 μg protein in 100 μl injected, 1.0 ml/min; mass by calibration standards

17β-HSD type 1 (from UniProt P14061)
Kd [1]: < 5 pM

17β-HSDcl (Curvularia lunata; H111A)
Km [2]: 50.6 µM | kcat [2]: 2.4 s⁻¹ | kcat/Km [2]: 47000 M⁻¹ s⁻¹ | Km [3]: 4.6 µM | kcat [3]: 0.9 s⁻¹ | kcat/Km [3]: 190000 M⁻¹ s⁻¹

17β-HSDcl-His111Ala (enzyme)
stoichiometry N [4]: 2

NC(=O)c1ccc[n+]([C@@H]2O[C@H](COP(=O)(O)OP(=O)(O)OC[C@H]3O[C@@H](n4cnc5c(N)ncnc54)[C@H](OP(=O)(O)O)[C@@H]3O)[C@@H](O)[C@H]2O)c1 [NADP^+]
Kd (17β-HSDcl [5]): 5.8 µM | Kd (17β-HSDcl [6]): 12.8 µM | Kd (17β-HSDcl [7]): 19.9 µM

B1: 17β-hydroxysteroid dehydrogenase from Cochliobolus lunatus, wild type (enzyme, UniProt O93874 1-270, looked up)
chain: MPHVENASETYIPGRLDGKVALVTGSGRGIGAAVAVHLGRLGAKVVVNYANSTKDAEKVVSEIKALGSDAIAIKADIRQVPEIVKLFDQAVAHFGHLDIAVSNSGVVSFGHLKDVTEEEFDRVFSLNTRGQFFVAREAYRHLTEGGRIVLTSSNTSKDFSVPKHSLYSGSKGAVDSFVRIFSKDCGDKKITVNAVAPGGTVTDMFHEVSHHYIPNGTSYTAEQRQQMAAHASPLHRNGWPQDVANVVGFLVSKEGEWVNGKVLTLDGGAA
notes: expected molecular mass 28 kDa; also called 17β-HSDcl; fungal 17β-HSD; source: E. coli JM107, GST fusion, purified (Glutathione Sepharose, thrombin cleavage)
stoichiometry N [8]: 2
